According to PMC8967715 (2022):

What was measured:
Assay in all cases: FACS
WIV1 = target: WIV1
[1] = target: SARS-CoV-2 RBD (Wuhan-Hu-1, Asn331–Thr531), yeast-displayed (SARS-CoV-2 (Wuhan-Hu-1), UniProt P0DTC2 331-531)
[2] = target: BtKY72 RBD, yeast-displayed (bat sarbecovirus BtKY72)

B1: Mouse (Mus musculus) ACE2 (residues 18–740) with His tag and human IgG1 Fc (Fc fusion)
chain: QSLTEENAKTFLNNFNQEAEDLSYQSSLASWNYNTNITEENAQKMSEAAAKWSAFYEEQSKTAQSFSLQEIQTPIIKRQLQALQQSGSSALSADKNKQLNTILNTMSTIYSTGKVCNPKNPQECLLLEPGLDEIMATSTDYNSRLWAWEGWRAEVGKQLRPLYEEYVVLKNEMARANNYNDYGDYWRGDYEAEGADGYNYNRNQLIEDVERTFAEIKPLYEHLHAYVRRKLMDTYPSYISPTGCLPAHLLGDMWGRFWTNLYPLTVPFAQKPNIDVTDAMMNQGWDAERIFQEAEKFFVSVGLPHMTQGFWANSMLTEPADGRKVVCHPTAWDLGHGDFRIKMCTKVTMDNFLTAHHEMGHIQYDMAYARQPFLLRNGANEGFHEAVGEIMSLSAATPKHLKSIGLLPSDFQEDSETEINFLLKQALTIVGTLPFTYMLEKWRWMVFRGEIPKEQWMKKWWEMKREIVGVVEPLPHDETYCDPASLFHVSNDYSFIRYYTRTIYQFQFQEALCQAAKYNGSLHKCDISNSTEAGQKLLKMLSLGNSEPWTKALENVVGARNMDVKPLLNYFQPLFDWLKEQNRNSFVGWNTEWSPYADQSIKVRISLKSALGANAYEWTNNEMFLFRSSVAYAMRKYFSIIKNQTVPFLEEDVRVSDLKPRVSFYFFVTSPQNVSDVIPRSEVEDAIRMSRGRINDVFGLNDNSLEFLGIHPTLEPPYQPPVT
Kd (WIV1): ~3.98 µM
Kd [1]: > 10 µM

B2: R. affinis 787 ACE2 residues 19–615 with C-terminal human IgG1 Fc (Genscript) (Fc fusion)
chain: STTEDRAKIFLDNFNREAEELSYQSSLASWEYNTNISDENVQKMDEAGAKWSAFYEEQSKLAKNYPLEEIQTVPVKLQLQILQQSGSPVLSEDKSKRLNSILNAMSTIYSTGKVCKPNNPQECFLLEPGLDNIMGTSKDYNERLWAWEGWRAEVGKQLRPLYEEYVVLKNEMARGYHYEDYGDYWRRDYETEESSGSGYSRDQLMKDVDRIFTEIKPLYEHLHAYVRTKLMDTYPFHISPTGCLPAHLLGDMWGRFWTNLYPLTVPFGQKPNIDVTDAMVNQGWDANRIFKEAEKFFVSVGLPNMTEGFWNNSMLTEPGDGRKVVCHPTAWDLGKGDFRIKMCTKVTMEDFLTAHHEMGHIQYDMAYATQPYLLRNGANEGFHEAVGEVMSLSVATPKHLKTMGLLSPDFLEDNETEINFLLKQALNIVGTLPFTYMLEKWRWMVFRGEIPKEEWMKKWWEMKRDLVGVVEPVPHDETYCDPASLFHVANDYSFIRYYTRTIFEFQFHEALCRIAQHDGPLHKCDISNSTDAGKKLHQMLSVGKSQPWTVTLKDIVDSRNMDVGPLLRYFEPLYTWLQEQNRKSYVGWNTDWSPYSD
Kd [2]: 0.1 µM
